According to PMC9783754 (International Journal of Molecular Sciences, 2022):
Where a chain is given by its changes, count along the chain named.

B1: Recombinant human S100A11 (natural protein, UniProt P31949 1-105, looked up)
chain: MAKISSPTETERCIESLIAVFQKYAGKDGYNYTLSKTEFLSFMNTELAAFTKNQKDPGVLDRMMKKLDTNSDGQLDFSEFLNLIGGLAMACHDSFLKAVPSQKRT
notes: S100A11, human, UniProt ID P31949 (printed in the methods of the database search); mainly dimeric by cross-linking at 4 µM; source: E. coli, purified as previously described
B2: Recombinant human S100A12 (natural protein, UniProt P80511 1-92, looked up)
chain: MTKLEEHLEGIVNIFHQYSVRKGHFDTLSKGELKQLLTKELANTIKNIKDKAVIDEIFQGLDANQDEQVDFQEFISLVAIALKAAHYHTHKE
notes: S100A12, human, UniProt ID P80511 (printed in the methods of the database search); monomer and dimer by cross-linking at 4 µM; source: E. coli, purified as previously described
B3: Recombinant human S100A2 (natural protein)
chain: not shown
notes: S100A2, human; Ca2+-loaded in the assay; source: E. coli, purified as previously described
B4: Recombinant human S100A3 (natural protein, UniProt P33764 1-101, looked up)
chain: MARPLEQAVAAIVCTFQEYAGRCGDKYKLCQAELKELLQKELATWTPTEFRECDYNKFMSVLDTNKDCEVDFVEYVRSLACLCLYCHEYFKDCPSEPPCSQ
notes: S100A3, human; Ca2+-loaded in the assay; source: E. coli, purified as previously described
B5: Recombinant human S100A4 (natural protein)
chain: not shown
notes: S100A4, human; Ca2+-loaded in the assay; source: E. coli, purified as previously described
B6: Recombinant human S100A5 (natural protein, UniProt P33763 1-92, looked up)
chain: METPLEKALTTMVTTFHKYSGREGSKLTLSRKELKELIKKELCLGEMKESSIDDLMKSLDKNSDQEIDFKEYSVFLTMLCMAYNDFFLEDNK
notes: S100A5, human; Ca2+-loaded in the assay; source: E. coli, purified as previously described
B7: Recombinant human S100A7 (natural protein, UniProt P31151 1-101, looked up)
chain: MSNTQAERSIIGMIDMFHKYTRRDDKIEKPSLLTMMKENFPNFLSACDKKGTNYLADVFEKKDKNEDKKIDFSEFLSLLGDIATDYHKQSHGAAPCSGGSQ
notes: S100A7, human; Ca2+-loaded in the assay; source: E. coli, purified as previously described
B8: Recombinant human S100A15 (natural protein, UniProt Q86SG5 1-101, looked up)
chain: B7 chain with R22G, D25G, T52I, N53H, D57T, T84A
notes: Ca2+-loaded in the assay; source: E. coli, purified as previously described
B9: Recombinant human S100A8 (natural protein, UniProt P05109 1-93, looked up)
chain: MLTELEKALNSIIDVYHKYSLIKGNFHAVYRDDLKKLLETECPQYIRKKGADVWFKELDINTDGAVNFQEFLILVIKMGVAAHKKSHEESHKE
notes: S100A8, human; Ca2+-loaded in the assay; source: E. coli, purified as previously described
B10: Recombinant human S100A9 (natural protein, UniProt P06702 1-114, looked up)
chain: MTCKMSQLERNIETIINTFHQYSVKLGHPDTLNQGEFKELVRKDLQNFLKKENKNEKVIEHIMEDLDTNADKQLSFEEFIMLMARLTWASHEKMHEGDEGPGHHHKPGLGEGTP
notes: S100A9, human; Ca2+-loaded in the assay; source: E. coli, purified as previously described
B11: Recombinant human S100A14 (natural protein, UniProt Q9HCY8 1-104, looked up)
chain: MGQCRSANAEDAQEFSDVERAIETLIKNFHQYSVEGGKETLTPSELRDLVTQQLPHLMPSNCGLEEKIANLGSCNDSKLEFRSFWELIGEAAKSVKLERPVRGH
notes: S100A14, human; Ca2+-loaded in the assay; source: E. coli, purified as previously described
B12: Recombinant human S100A16 (natural protein, UniProt Q96FQ6 1-103, looked up)
chain: MSDCYTELEKAVIVLVENFYKYVSKYSLVKNKISKSSFREMLQKELNHMLSDTGNRKAADKLIQNLDANHDGRISFDEYWTLIGGITGPIAKLIHEQEQQSSS
notes: S100A16, human; Ca2+-loaded in the assay; source: E. coli, purified as previously described
B13: Recombinant human S100B (natural protein, UniProt P04271 1-92, looked up)
chain: MSELEKAMVALIDVFHQYSGREGDKHKLKKSELKELINNELSHFLEEIKEQEVVDKVMETLDNDGDGECDFQEFMAFVAMVTTACHEFFEHE
notes: S100B, human; Ca2+-loaded in the assay; source: E. coli, purified as previously described
B14: Recombinant human S100P (natural protein, UniProt P25815 1-95, looked up)
chain: MTELETAMGMIIDVFSRYSGSEGSTQTLTKGELKVLMEKELPGFLQSGKDKDAVDKLLKDLDANGDAQVDFSEFIVFVAAITSACHKYFEKAGLK
notes: S100P, human; Ca2+-loaded in the assay; source: E. coli, purified as previously described
B15: Recombinant human S100A13 (natural protein, UniProt Q99584 1-98, looked up)
chain: MAAEPLTELEESIETVVTTFFTFARQEGRKDSLSVNEFKELVTQQLPHLLKDVGSLDEKMKSLDVNQDSELKFNEYWRLIGELAKEIRKKKDLKIRKK
notes: S100A13, human, UniProt ID Q99584 (printed in the methods of the database search); source: E. coli, purified as previously described

Biological target: the molecule itself
Assay: cross-linking; 4 µM sTNF and/or S100 protein (sTNF to S100 1:0, 0:1, 1:0.5, 1:1, 1:2), 20 mM EDAC and 5 mM sulfo-NHS, 25 °C, 1.5 h; 10 mM HEPES, 150 mM NaCl, pH 7.4 with 1 mM CaCl2; SDS-PAGE with silver staining
Details: not given
With B1 the “stoichiometry N” value was 2. B2 was tested, and the “stoichiometry N” value was 2.

Each binder was assayed against T1, Recombinant human sTNF (soluble form of tumor necrosis factor) (human, UniProt P01375 77-233) (assay: other fluorescence titration; 280 nM (S100A11) or 0.5 µM (S100A12) multimeric sTNF titrated by Ca2+-bound S100 protein; Trp fluorescence of sTNF, excitation 295/298 nm, intensity at 325 nm; 25 °C; 10 mM HEPES-NaOH, 150 mM NaCl, 1 mM CaCl2, pH 7.4; single site binding model; apparent). Details: both partners purified.
T1 construct: additional N-terminal methionine, stated in words; tumor necrosis factor, human, soluble form (157 residues), residues 77-233 of UniProt entry P01375; Monomeric on the SPR chip after long flushing and glycine pH 3.3 washes; multimeric in solution in the fluorimetric titrations and cross-linking; also called TNF-α; TNF ligand superfamily member 2; source: bought: Prospec-Tany Technogene (catalog # …)
T1 sequence (P01375 other isoform, or with tags, fused parts or gaps): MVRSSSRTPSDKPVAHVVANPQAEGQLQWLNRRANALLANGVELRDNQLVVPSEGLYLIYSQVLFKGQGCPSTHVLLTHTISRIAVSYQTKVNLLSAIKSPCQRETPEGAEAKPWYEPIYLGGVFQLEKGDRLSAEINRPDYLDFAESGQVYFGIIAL
B1 was tested, and the Kd was 104 ± 23 nM and the “stoichiometry N” value was 1. For B2, the Kd was 348 ± 50 nM and the “stoichiometry N” value was 1.

The binders below were run against T1, Recombinant human sTNF (soluble form of …) (assay: SPR; ligand (50 μg/mL sTNF or TNF-β) immobilised on a ProteOn GLH chip by amine coupling; chip flushed with running buffer for two days and several times with 10 mM glycine pH 3.3 to dissociate sTNF multimers (monomeric sTNF); Ca2+-loaded S100 protein as analyte, 10 nM–2 µM; 25 °C; 10 mM HEPES, 150 mM NaCl, 1 mM CaCl2, 0.05% TWEEN 20, pH 7.4; heterogeneous ligand model). Details: both partners purified.
B3 showed a Kd greater than 100000 nM. B4 gave a Kd greater than 100000 nM. In the case of B5, the Kd is reported as greater than 100000 nM. In the case of B6, the Kd is reported as greater than 100000 nM. B7 showed a Kd greater than 100000 nM. Work on B8 yielded a Kd greater than 100000 nM. B9 showed a Kd greater than 100000 nM. Binder B10 has a Kd greater than 100000 nM. With B11 the Kd was greater than 100000 nM. Work on B12 yielded a Kd greater than 100000 nM. B13 showed a Kd greater than 100000 nM. B14 gave a Kd greater than 100000 nM.

Biological target: T1, Recombinant human sTNF (soluble form of …)
Assay: as above
Details: both partners purified
Remark: another data set of the same source
In the case of B1, the “Kd1 (KD, ligand population 1)” value is reported as 28 nM, the “Kd2 (KD, ligand population 2)” value is reported as 695 nM and the “kd1 (koff, ligand population 1)” value is reported as 0.00018 s⁻¹. For the same binder, the “kd2 (koff, ligand population 2)” value was 0.0084 s⁻¹. B15 was tested, and the “Kd1 (KD, ligand population 1)” value was 2.4 nM, the “Kd2 (KD, ligand population 2)” value was 4.3 nM and the “kd1 (koff, ligand population 1)” value was 0.0009 s⁻¹. For the same binder, the “kd2 (koff, ligand population 2)” value was 0.0073 s⁻¹. B2 was tested, and the “Kd1 (KD, ligand population 1)” value was 2.3 nM, the “Kd2 (KD, ligand population 2)” value was 8.4 nM and the “kd1 (koff, ligand population 1)” value was 0.0018 s⁻¹. The “kd2 (koff, ligand population 2)” value was 0.0023 s⁻¹.
